“And” between values parts separate entries of the source, which are not always exact repeats. Equal entries are not always repeated. Where two headings read alike, the source gives them in different places.
Legend:
rat Y2 receptor (rat) [1] = biological target: rat Y2 receptor (rat) (UniProt Q9ERC0); assay: 125I-PYY displacement, COS-7 membranes
rat Y1 receptor (rat) [2] = biological target: rat Y1 receptor (rat) (UniProt P21555); assay: 125I-PYY displacement, COS-7 membranes
rat Y4 receptor (rat) [3] = biological target: rat Y4 receptor (rat) (UniProt Q63447); assay: 125I-PYY displacement, COS-7 membranes
[4] = biological target: T1, rat hypothalamic Y5 receptor (rat)
T1 sequence: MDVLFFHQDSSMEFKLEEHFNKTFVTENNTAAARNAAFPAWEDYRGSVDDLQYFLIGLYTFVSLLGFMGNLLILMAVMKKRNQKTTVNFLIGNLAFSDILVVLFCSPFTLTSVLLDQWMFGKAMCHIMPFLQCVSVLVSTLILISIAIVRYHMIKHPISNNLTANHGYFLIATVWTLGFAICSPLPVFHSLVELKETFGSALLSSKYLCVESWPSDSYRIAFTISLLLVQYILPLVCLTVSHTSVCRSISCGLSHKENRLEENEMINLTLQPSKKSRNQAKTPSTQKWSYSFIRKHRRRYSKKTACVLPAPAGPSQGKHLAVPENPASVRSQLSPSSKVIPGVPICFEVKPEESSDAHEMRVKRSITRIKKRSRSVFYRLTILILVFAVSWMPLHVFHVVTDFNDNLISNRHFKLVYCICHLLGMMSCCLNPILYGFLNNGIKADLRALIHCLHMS

[5] = biological target: human hippocampal Y5 receptor (human)
[6] = biological target: membranes from rat hypothalamus; assay: 125I-PYY displacement, rat hypothalamic membranes
[7] = biological target: T1, rat hypothalamic Y5 receptor (rat); assay: 125I-PYY displacement, COS-7 membranes
[8] = biological target: human hippocampal Y5 receptor (human); remark: listed apart in the source
[9] = biological target: human hippocampal Y5 receptor (human); remark: listed apart in the source
[10] = biological target: human Y2 receptor (human) (UniProt P49146); assay: 125I-PYY displacement, COS-7 membranes
[11] = biological target: membranes from rat hypothalamus; assay: 125I-PYY displacement, rat hypothalamic membranes; high-affinity part of a two-part curve
[12] = biological target: T1, rat hypothalamic Y5 receptor (rat); assay: time course, 0.08 nM radioligand, room temperature, 10 mM Na+
[13] = biological target: T1, rat hypothalamic Y5 receptor (rat); assay: time course, 0.08 nM radioligand, room temperature, 138 mM Na+
[14] = biological target: T1, rat hypothalamic Y5 receptor (rat); assay: saturation binding, isotonic buffer, room temperature, COS-7 membranes
[15] = biological target: human hippocampal Y5 receptor (human); assay: 125I-PYY displacement, COS-7 membranes
[16] = biological target: human hippocampal Y5 receptor (human); assay: 125I-PYY3-36 displacement, LM(tk-) membranes
[17] = biological target: human hippocampal Y5 receptor (human); assay: 125I-PYY displacement, LM(tk-) membranes
[18] = biological target: human Y1 receptor (human) (UniProt P25929); assay: 125I-PYY displacement, COS-7 membranes
[19] = biological target: T1, rat hypothalamic Y5 receptor (rat); assay: 125I-PYY displacement, COS-7 membranes; remark: listed apart in the source
[20] = biological target: human Y4 receptor (human) (UniProt P50391); assay: 125I-PYY displacement, COS-7 membranes
[21] = biological target: T1, rat hypothalamic Y5 receptor (rat); assay: 125I-PYY displacement, COS-7 membranes; remark: listed apart in the source
[22] = biological target: human hippocampal Y5 receptor (human); assay: 125I-PYY displacement
[23] = biological target: T1, rat hypothalamic Y5 receptor (rat); remark: listed apart in the source
rat Y2 receptor (rat) [24] = biological target: rat Y2 receptor (rat) (UniProt Q9ERC0); assay: 125I-PYY displacement, COS-7 membranes; remark: listed apart in the source
rat Y4 receptor (rat) [25] = biological target: rat Y4 receptor (rat) (UniProt Q63447); assay: 125I-PYY displacement, COS-7 membranes; remark: listed apart in the source
rat Y2 receptor (rat) [26] = biological target: rat Y2 receptor (rat) (UniProt Q9ERC0); assay: 125I-PYY displacement, COS-7 membranes; remark: listed apart in the source
[27] = biological target: human Y1 receptor (human) (UniProt P25929); assay: 125I-PYY displacement, COS-7 membranes; remark: listed apart in the source
[28] = biological target: human Y2 receptor (human) (UniProt P49146); assay: 125I-PYY displacement, COS-7 membranes; remark: listed apart in the source
rat Y1 receptor (rat) [29] = biological target: rat Y1 receptor (rat) (UniProt P21555); assay: 125I-PYY displacement, COS-7 membranes; remark: listed apart in the source
rat Y4 receptor (rat) [30] = biological target: rat Y4 receptor (rat) (UniProt Q63447); assay: 125I-PYY displacement, COS-7 membranes; remark: listed apart in the source
[31] = biological target: human hippocampal Y5 receptor (human); assay: 125I-PYY displacement, COS-7 membranes; remark: listed apart in the source

rat Y4 receptor (rat), sequence (Q63447 whole entry): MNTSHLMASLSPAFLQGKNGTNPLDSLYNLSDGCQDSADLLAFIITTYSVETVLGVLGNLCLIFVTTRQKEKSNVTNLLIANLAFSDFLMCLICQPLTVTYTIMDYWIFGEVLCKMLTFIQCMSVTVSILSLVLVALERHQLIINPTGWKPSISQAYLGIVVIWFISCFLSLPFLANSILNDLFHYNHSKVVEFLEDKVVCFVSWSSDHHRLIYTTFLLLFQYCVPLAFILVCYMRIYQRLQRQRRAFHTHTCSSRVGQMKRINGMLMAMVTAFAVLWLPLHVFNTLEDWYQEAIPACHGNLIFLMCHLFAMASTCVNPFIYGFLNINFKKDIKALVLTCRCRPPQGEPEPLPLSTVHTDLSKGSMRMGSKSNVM

porcine [Leu^31, Pro^34]NPY (from UniProt P01304) (peptide)
Ki (rat Y2 receptor (rat) [1]): 840 nM
Ki (rat Y1 receptor (rat) [2]): 0.25 nM
Ki (rat Y4 receptor (rat) [3]): 0.32 nM

human PYY3-36 (from UniProt P10082) (peptide)
inhibition of forskolin-stimulated cAMP accumulation, EC50 [4]: 4.9 nM
inhibition of forskolin-stimulated cAMP accumulation, EC50 [5]: 18 nM

human NPY2-36 (from UniProt P01303) (peptide)
inhibition of forskolin-stimulated cAMP accumulation, EC50 [4]: 2 nM
maximum inhibition of forskolin-stimulated cAMP accumulation (Emax) [4]: 84%
IC50 [6]: 2.3 nM

rat/human NPY, P01303 (peptide; carboxy terminal amide; other documents disagree on this pair)
Ki (rat Y4 receptor (rat) [3]): 1.7 nM

frog PP (rana temporaria) (peptide)
Ki (rat Y2 receptor (rat) [1]): > 980 nM
Ki (rat Y1 receptor (rat) [2]): 720 nM
Ki [7]: > 550 nM
Ki (rat Y4 receptor (rat) [3]): > 1000 nM

rat/human NPY (from UniProt P01303) (peptide)
inhibition of forskolin-stimulated cAMP, EC50, LM(tk-) cells [8]: 2.4 nM
inhibition of forskolin-stimulated cAMP, EC50, NIH-3T3 cells [8]: 8.5 nM
maximum inhibition of forskolin-stimulated cAMP (Emax), LM(tk-) cells [8]: 72%
maximum inhibition of forskolin-stimulated cAMP (Emax), NIH-3T3 cells [8]: 42%
intracellular free calcium concentration (Fura-2) [9]: 34 nM
inhibition of forskolin-stimulated cAMP accumulation, EC50 [4]: 1.8 nM
maximum inhibition of forskolin-stimulated cAMP accumulation (Emax) [4]: 67%
inhibition of forskolin-stimulated cAMP accumulation, EC50 [5]: 2.7 nM
IC50 [6]: 0.82 nM

avian PP (peptide)
Ki (rat Y2 receptor (rat) [1]): > 1000 nM

human [Leu^31, Pro^34]NPY (from UniProt P01303) (peptide)
inhibition of forskolin-stimulated cAMP accumulation, EC50 [4]: 0.6 nM
maximum inhibition of forskolin-stimulated cAMP accumulation (Emax) [4]: 70%
Ki [10]: > 130 nM
inhibition of forskolin-stimulated cAMP accumulation, EC50 [5]: 3 nM
Ki (rat Y2 receptor (rat) [1]): > 1000 nM
Ki (rat Y1 receptor (rat) [2]): 0.1 nM
Ki [7]: 1 nM
Ki (rat Y4 receptor (rat) [3]): 0.59 nM
IC50 [11]: 0.21 nM

human NPY2-36, P01303 (peptide; other documents disagree on this pair)
Ki (rat Y4 receptor (rat) [3]): 5 nM

porcine ^125I-[Leu^31, Pro^34]PYY (from UniProt P68005) (peptide)
maximal specific binding [12]: 480 fmol/mg
observed association rate (Kobs) [12]: 0.042 min⁻¹
t1/2 of association [12]: 17 min
maximal specific binding [13]: 330 fmol/mg
observed association rate (Kobs) [13]: 0.029 min⁻¹
t1/2 of association [13]: 24 min
Kd [14]: 0.072 nM
pKd [14]: 10.1

W(nor-L)RF-amide (peptide)
Ki [7]: 8700 nM

frog NPY (melanostatin) (peptide)
Ki (rat Y2 receptor (rat) [1]): 0.65 nM
Ki (rat Y1 receptor (rat) [2]): 0.09 nM
Ki [7]: 0.71 nM

human PP2-36 (from UniProt P01298) (peptide)
inhibition of forskolin-stimulated cAMP accumulation, EC50 [5]: 2 nM

human NPY free acid, P01303 (peptide; free carboxylic acid at the carboxy terminus instead of the amide; other documents disagree on this pair)
Ki (rat Y4 receptor (rat) [3]): > 1000 nM

human [Ile^31, Gln^34]PP (from UniProt P01298) (peptide)
inhibition of forskolin-stimulated cAMP accumulation, EC50 [5]: 5.6 nM
Ki [15]: 2 nM

human PP (from UniProt P01298) (peptide)
% inhibition of cAMP accumulation relative to human NPY [5]: 96%
inhibition of forskolin-stimulated cAMP accumulation, EC50 [5]: 14 nM

porcine C2-NPY (peptide)
Ki [16]: 220 nM
inhibition of forskolin-stimulated cAMP accumulation, EC50 [4]: 240 nM
Ki [17]: 260 nM
Ki [18]: 79 nM
Ki [10]: 3.5 nM
Ki [19]: 470 nM
Ki [20]: 120 nM
Ki (rat Y2 receptor (rat) [1]): 2.6 nM
Ki (rat Y1 receptor (rat) [2]): 140 nM
Ki [7]: > 260 nM
Ki (rat Y4 receptor (rat) [3]): 22 nM
Ki [21]: 260 nM
Ki [15]: 370 nM

human [D-Trp^32]NPY (from UniProt P01303) (peptide)
Ki [22]: 18 nM
Ki [16]: 10 nM
inhibition of forskolin-stimulated cAMP accumulation, EC50 [23]: 7.5 nM and 25 nm
inhibition of forskolin-stimulated cAMP accumulation, EC50 [4]: 9.5 nM
maximum inhibition of forskolin-stimulated cAMP accumulation (Emax) [4]: 72%
Ki [17]: 16 nM
Ki (rat Y2 receptor (rat) [24]): > 1000 nM
Ki [18]: > 1000 nM
Ki [10]: > 1000 nM
Ki [19]: 53 nM
Ki (rat Y4 receptor (rat) [25]): > 1000 nM
inhibition of forskolin-stimulated cAMP accumulation, EC50 [5]: 26 nM
Ki (rat Y2 receptor (rat) [1]): 760 nM
Ki (rat Y1 receptor (rat) [2]): > 1000 nM
Ki [7]: 35 nM
Ki (rat Y4 receptor (rat) [3]): > 630 nM
Ki [15]: 35 nM
Ki (rat Y2 receptor (rat) [26]): > 500 nM
Ki [27]: > 500 nM
Ki [28]: > 500 nM
Ki (rat Y1 receptor (rat) [29]): > 500 nM
Ki (rat Y4 receptor (rat) [30]): > 500 nM

salmon PP (peptide)
Ki [16]: 0.63 nM
inhibition of forskolin-stimulated cAMP accumulation, EC50 [4]: 0.92 nM
Ki [18]: 0.11 nM
Ki [10]: 0.17 nM
Ki [19]: 0.31 nM
Ki [20]: 3.2 nM
Ki [31]: 0.46 nM
% inhibition of cAMP accumulation relative to human NPY [5]: 96%
inhibition of forskolin-stimulated cAMP accumulation, EC50 [5]: 4.5 nM
Ki (rat Y2 receptor (rat) [1]): 0.16 nM
Ki (rat Y1 receptor (rat) [2]): 0.3 nM
Ki [7]: 0.33 nM
Ki (rat Y4 receptor (rat) [3]): 3 nM
Ki [15]: 0.27 nM

human PYY (from UniProt P10082) (peptide)
% inhibition of cAMP accumulation relative to human NPY [5]: 111%
inhibition of forskolin-stimulated cAMP accumulation, EC50 [5]: 4.9 nM
IC50 [6]: 1.3 nM

porcine NPY3-36, P01304 (peptide; other documents disagree on this pair)
Ki (rat Y4 receptor (rat) [3]): 36 nM
